Experimental data as given in US6875737.

Biological target: T cell receptor of the murine 2B4 T cell hybridoma
Test: cell-based or functional assay

Substance | IL-2 production in 2B4 cells: concentration needed for the maximum response, against 0.4 µM KbP-S-MCC (fold higher concentration) | IL-2 production in 2B4 cells at 0.4 µM KbP-S-MCC, against the maximum response obtained with the MCC peptide alone
Moth cytochrome C peptide MCC 94-103 (from UniProt P00039 94-103) | 10 | 
KbP-S-MCC (Lys-boroPro coupled through a spacer linker to the N terminus of moth cytochrome C peptide 94-103) (from UniProt P00039 94-103) |  | > 2 fold
